The data set concerns the molecule itself. The experiment in a line: small angle neutron scattering.

B1: outer membrane protein OmpF (receptor)
chain: AEIYNKDGNKVDLYGKAVGLHYFSKGNGENSYGGNGDMTYARLGFKGETQINSDLTGYGQWEYNFQGNNSEGADAQTGNKTRLAFAGLKYADVGSFDYGRNYGVVYDALGYTDMLPEFGGDTAYSDDFFVGRVGGVATYRNSNFFGLVDGLNFAVQYLGKNERDTARRSNGDGVGGSISYEYEGFGIVGAYGAADRTNLQEAQPLGNGKKAEQWATGLKYDANNIYLAANYGETRNATPITNKFTNTSGFANKTQDVLLVAQYQFDFGLRPSIAYTKSKAKDVEGIGDVDLVNYFEVGATYYFNKNMSTYVDYIINQIDSDNKLGVGSDDTVAVGIVYQF
modifications: partially deuterated (d-OmpF) in the SANS samples; hydrogenous or deuterated in the neutron reflection samples
On to B1, for which the “stoichiometry N” value was found to be 3.

As usually defined, the stoichiometry N is a count of units in the complex or per binding partner.

The values are drawn from PMC3249085 (The Journal of Biological Chemistry, 2011).
